Data from US20160251703, “ALLERGEN DETECTION” (DOTS DEVICES, INC., published 2016).

How the values were obtained:
Lysozyme (egg white) [1] = biological target: T1, Lysozyme (egg white) (UniProt P00698 P00698:19-147); experiment: fluorescence turn-on; lysozyme spiked into chocolate cake; conditions: tags: Pierce (Thermo Scientific); label: 5'-fluorescein, 3'-Dabcyl; hairpin
Method: A set of binding assays were performed using lysozyme SPNs (MB4, MB5 and MB6). Experimental procedures: Food samples were homogenized as stated above—generally 2.5 ml buffer was added to 0.5 food sample. The samples were homogenized and centrifuged. 25 ul of the sample was added to a 96 flat bottom well plate. The specific SPN was resuspended to a 100 uM concentration and 25 ul of the SPN was added to the plate—final concentration 50 uM. The samples were immediately read with the GloMax Promega plate reader using the blue laser. (detection was quantified as the intensity of FITC minus the background—buffer alone and non-spiked samples).

Ovomucoid = Ovomucoid (UniProt P01005 P01005:25-210); experiment: ovomucoid spiked in mug cake; conditions: label: 5'-fluorescein, 3'-Dabcyl; hairpin
Sequence of Ovomucoid (P01005 25-210, one chain of several): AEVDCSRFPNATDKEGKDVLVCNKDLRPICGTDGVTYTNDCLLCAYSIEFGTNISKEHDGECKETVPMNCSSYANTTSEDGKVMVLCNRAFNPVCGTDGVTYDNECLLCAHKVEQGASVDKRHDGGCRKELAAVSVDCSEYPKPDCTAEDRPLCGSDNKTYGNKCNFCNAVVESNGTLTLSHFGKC

Lysozyme (egg white) [2] = biological target: T1, Lysozyme (egg white); experiment: fluorescence turn-on; 100 uM SPN detects 5 ng/mL lysozyme; 25 C; not altered by milk or BSA (FIG. 10); conditions: tags: Pierce (Thermo Scientific); partial duplex with annealed 10-nt quencher linker at 5' end
Method: (§1) Protein samples are diluted to specified concentrations in PBS. The signaling polynucleotide solutions are prepared at 200 μM in 10 mM TRIS-HCl, pH 7.5, heated to 99° C. for 3 minutes and then cooled to room temperature for 20 minutes. Volumes of 60 μL of protein solutions are added to the wells of a 96-well plate. Signaling polynucleotides are added to the wells as soon as possible after the addition of the protein samples. Fluorescence readings are taken immediately with all readings obtained at 25° C. with an excitation wavelength of 495 nm and emission monitored at the fluorescence peak of 519 nm. The signaling polynucleotides were synthesized by TriLink Biotechnologies (San Diego, Calif.), pure lysozyme was obtained from Pierce (Thermoscientific) and BSA was obtained from Sigma Aldrich.
(§2) The data plotted in FIG. 9A indicate that SPN-E* at a concentration of 100 μM detects lysozyme at a 5 ng/mL concentration and increases the detection level to 3 pg/sample. The data plotted in FIG. 9B indicate that SPN-E can be used to detect lysozyme in unprocessed egg white which was diluted 1:20 (sample size was 30 μL). SPN-E gave a minimal signal with BSA as the negative control protein.

Lysozyme (egg white) [3] = biological target: T1, Lysozyme (egg white); experiment: fluorescence turn-on; detects lysozyme 0.6-1200 ng/mL; 12 uM SPN; PBS/Tris pH 7.5, 25 C; conditions: tags: Pierce (Thermo Scientific); label: 5'-fluorescein, 3'-Dabcyl; hairpin
Method: as §1
An assay was performed to obtain a dose curve (12 μM of detection of signaling polynucleotide SPN-E per sample). The results are shown in FIG. 8 and indicate that SPN-E detects lysozyme concentrations ranging from 0.6 ng/mL to 1200 ng/mL, translating to less than 50 pg of lysozyme per sample.

Bovine serum albumin = Bovine serum albumin (Bos taurus, UniProt P02769 P02769:25-607); experiment: fluorescence turn-on; minimal signal with BSA negative control; conditions: tags: Sigma Aldrich; label: 5'-fluorescein, 3'-DABCYL; hairpin
Sequence of Bovine serum albumin (P02769 25-607, one chain of several): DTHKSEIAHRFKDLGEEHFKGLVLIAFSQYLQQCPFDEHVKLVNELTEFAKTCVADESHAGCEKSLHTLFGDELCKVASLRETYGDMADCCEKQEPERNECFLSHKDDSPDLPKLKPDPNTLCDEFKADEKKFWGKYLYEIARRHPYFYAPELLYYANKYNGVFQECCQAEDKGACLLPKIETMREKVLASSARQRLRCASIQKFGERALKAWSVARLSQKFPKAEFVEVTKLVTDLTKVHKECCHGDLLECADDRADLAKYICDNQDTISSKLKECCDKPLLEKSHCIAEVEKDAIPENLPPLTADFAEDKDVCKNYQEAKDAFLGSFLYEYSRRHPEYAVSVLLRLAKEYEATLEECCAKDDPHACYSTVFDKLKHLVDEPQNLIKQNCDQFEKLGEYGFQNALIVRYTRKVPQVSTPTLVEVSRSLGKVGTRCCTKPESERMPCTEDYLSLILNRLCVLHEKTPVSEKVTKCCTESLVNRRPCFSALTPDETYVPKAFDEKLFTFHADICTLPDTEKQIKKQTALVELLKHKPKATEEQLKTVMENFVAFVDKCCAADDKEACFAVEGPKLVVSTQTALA
Method: as §1, §2

T1 sequence (P00698 19-147, one chain of several): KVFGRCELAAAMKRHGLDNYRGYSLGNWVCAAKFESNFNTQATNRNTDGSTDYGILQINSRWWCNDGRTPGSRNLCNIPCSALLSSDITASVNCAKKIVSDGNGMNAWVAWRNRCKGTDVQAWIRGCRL

Binder	binding result (Lysozyme (egg white) [1])	binding result (Ovomucoid)	other results
TGCAGCTAAGCAGGCGGCTCACAAAACCATTCGCATGCGGCTGCA (ssDNA) [MB4]	binds		
MB9 (ssDNA) DNA: TCGCACATTCCGCTTCTACCGGGGGGGTCGAGCTGAGTGGATGCGAATCTGTGGGTGGGCCGTAAGTCCGTGTGTGCGAAAATGTGCGA		no binding	
MB7 (ssDNA) DNA: TCGCACATTCCGCTTCTACCGGGGGGGTCGAGCTGAGTGGATGCGAATCTGTGGGTGGGCCGTAAGTCCGTGTGTGCGAATGTGCGA		no binding	
SPN-E* (structured_DNA) DNA 1: TGCAGCTAAGCAGGCGGCTCACAAAACCATTCGCATGCGGC DNA 2: CTTAGCTGCA			binding result (Lysozyme (egg white) [2]): binds
TGCAGCTAAGCAGGCGGCTCACAAAACCATTCGCATGCGGCGCTGCA (ssDNA) [MB6]	binds		
TGCAGCTAAGCAGGCGGCTCACAAAACCATTCGCATGCGGCGCTGC (ssDNA) [SPN-E]			binding result (Lysozyme (egg white) [3]): binds; binding result (Bovine serum albumin): no binding
